Assay results: US7049122B2, “Mutant-type lipases and applications thereof” (priority 2001, dated 2006)

Legend:
[1] = system: S. hyicus lipase; conditions: Chang et al. (1996); cited from earlier work
[2] = target: Staphylococcus epidermidis strain 9 lipase variant H648K (His-648 to Lys), SEQ ID NO:16 (Staphylococcus epidermidis, UniProt P0C0R3, H648K); assay: Kinetic analysis of hydrolysis of p-nitrophenyl butyrate (p-nitrophenol formation), mutant H648K; type: biochemical; conditions: H648K vs wild-type, substrate p-nitrophenyl butyrate
Sequence of Staphylococcus epidermidis strain 9 lipase variant H648K (His-648 to Lys), SEQ ID NO:16 (P0C0R3 303-688 H648K): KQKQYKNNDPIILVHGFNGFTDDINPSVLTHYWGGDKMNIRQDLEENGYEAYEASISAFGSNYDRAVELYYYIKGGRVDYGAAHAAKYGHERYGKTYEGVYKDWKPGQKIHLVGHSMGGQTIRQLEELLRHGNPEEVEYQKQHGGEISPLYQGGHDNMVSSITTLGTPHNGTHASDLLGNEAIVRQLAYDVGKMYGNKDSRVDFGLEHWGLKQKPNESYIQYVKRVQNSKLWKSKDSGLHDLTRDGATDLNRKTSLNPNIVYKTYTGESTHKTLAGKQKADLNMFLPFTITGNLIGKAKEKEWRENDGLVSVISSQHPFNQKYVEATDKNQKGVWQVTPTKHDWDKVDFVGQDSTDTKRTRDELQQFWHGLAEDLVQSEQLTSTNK
Method: (§1) The purified enzymes and substrate p-nitrophenyl butyrate (2.64 mM predissolved in 2.1% Triton X-100) were mixed in 50 mM phosphate buffer (pH 6.0). The reactions were carried out at 37° C. for 15 min and were terminated by the addition of acetone (1:1, v/v) (Kazlauskas 1994). The absorption values of the reaction product (p-nitrophenol) at 346 nm were determined, and the hydrolase activity (a general indicator for the lipolytic activity) of the purified enzymes was obtained, after converting the absorption values into mmols of p-nitrophenol quantity (at pH 6.0) curve. The molar extinction coefficient of p-nitrophenol under this condition was 2988[…].

[3] = target: Staphylococcus epidermidis strain 9 lipase variant M419A (Met-419 to Ala), SEQ ID NO:15 (Staphylococcus epidermidis, UniProt P0C0R3, M419A); assay: Kinetic analysis of hydrolysis of p-nitrophenyl butyrate (p-nitrophenol formation), mutant M419A; type: biochemical; conditions: M419A vs wild-type; substrate p-nitrophenyl butyrate
Sequence of Staphylococcus epidermidis strain 9 lipase variant M419A (Met-419 to Ala), SEQ ID NO:15 (P0C0R3 303-688 M419A): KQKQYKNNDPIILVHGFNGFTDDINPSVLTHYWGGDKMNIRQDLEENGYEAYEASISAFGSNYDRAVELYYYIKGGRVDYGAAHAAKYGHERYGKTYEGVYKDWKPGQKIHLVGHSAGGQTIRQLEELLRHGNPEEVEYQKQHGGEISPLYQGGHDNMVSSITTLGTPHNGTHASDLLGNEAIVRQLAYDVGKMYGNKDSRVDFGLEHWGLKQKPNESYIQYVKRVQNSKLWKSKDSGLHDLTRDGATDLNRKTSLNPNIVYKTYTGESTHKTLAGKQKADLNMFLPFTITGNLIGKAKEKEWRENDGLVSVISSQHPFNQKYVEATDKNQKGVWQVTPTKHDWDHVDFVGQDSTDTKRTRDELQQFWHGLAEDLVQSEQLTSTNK
Excerpt: (§2) The mutant-type lipase is preferably obtained from site-directed mutagenesis of a lipase isolated from Staphylococcus, most favorably Staphylococcus epidermidis. The mutant lipase from Stapylococcus epidermidis that has an alanine residue replacing the methionine residue which immediately follows the serine residue of the Ser-His-Asp catalytic triad has the amino acid sequence of SEQ ID NO: 15. The mutant lipase from Stapylococcus epidermidis that has an isoleucine residue replacing the valine residue which immediately follows the histidine residue of the Ser-His-Asp catalytic triad has the amino acid sequence of SEQ ID NO: 17.
as §1
(§3) The mutation apparently affected the enzyme's ability to stabilize the transition state more than it affected the substrate binding ability of the enzyme. […] The kcat/Km ratio is the pertinent parameter to determine kinetic efficiency of an enzyme.

[4] = target: Staphylococcus epidermidis strain 9 lipase variant V649I (Val-649 to Ile), SEQ ID NO:17 (Staphylococcus epidermidis, UniProt P0C0R3, V649I); assay: Kinetic analysis of hydrolysis of p-nitrophenyl butyrate (p-nitrophenol formation), mutant V649I; type: biochemical; conditions: V649I vs wild-type; substrate p-nitrophenyl butyrate
Sequence of Staphylococcus epidermidis strain 9 lipase variant V649I (Val-649 to Ile), SEQ ID NO:17 (P0C0R3 303-688 V649I): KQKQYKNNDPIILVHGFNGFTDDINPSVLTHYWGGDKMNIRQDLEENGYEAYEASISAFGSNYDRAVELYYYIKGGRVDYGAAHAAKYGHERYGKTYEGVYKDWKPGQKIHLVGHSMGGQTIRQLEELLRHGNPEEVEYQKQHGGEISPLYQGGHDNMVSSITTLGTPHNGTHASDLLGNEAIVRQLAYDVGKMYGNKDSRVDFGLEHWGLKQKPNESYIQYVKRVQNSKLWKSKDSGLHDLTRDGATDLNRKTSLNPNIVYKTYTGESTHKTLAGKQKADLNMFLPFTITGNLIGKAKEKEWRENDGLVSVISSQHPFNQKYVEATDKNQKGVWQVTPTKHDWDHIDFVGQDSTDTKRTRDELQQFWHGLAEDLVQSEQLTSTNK
Excerpt: as §2, §1

[5] = target: Staphylococcus epidermidis strain 9 lipase, wild-type (recombinant 43 kDa "Lys-303" lipase, C-terminal His-tag), SEQ ID NO:14 (Staphylococcus epidermidis, UniProt P0C0R3); assay: Kinetic analysis of hydrolysis of p-nitrophenyl butyrate (p-nitrophenol formation), wild-type lipase; type: biochemical; conditions: substrate p-nitrophenyl butyrate, 50 mM phosphate buffer (pH 6.0), 37° C., means ± standard error, three experiments
Sequence of Staphylococcus epidermidis strain 9 lipase, wild-type (recombinant 43 kDa "Lys-303" lipase, C-terminal His-tag), SEQ ID NO:14 (P0C0R3 303-688): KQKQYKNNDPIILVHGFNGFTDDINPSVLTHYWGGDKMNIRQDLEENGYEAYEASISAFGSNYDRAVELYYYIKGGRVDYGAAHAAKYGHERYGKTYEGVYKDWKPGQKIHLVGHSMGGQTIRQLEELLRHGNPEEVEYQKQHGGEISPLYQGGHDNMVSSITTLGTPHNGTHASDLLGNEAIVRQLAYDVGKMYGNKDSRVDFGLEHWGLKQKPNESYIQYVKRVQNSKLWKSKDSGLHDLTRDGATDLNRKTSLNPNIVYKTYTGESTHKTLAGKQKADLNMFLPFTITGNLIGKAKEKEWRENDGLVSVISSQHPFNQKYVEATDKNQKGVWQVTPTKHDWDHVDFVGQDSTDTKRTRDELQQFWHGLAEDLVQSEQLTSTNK
Excerpt: (§4) A fragment of the gehC gene (designated “Lys-303” gene), which encoded an amino acid sequence corresponding to that of the S. epidermidis lipase following proteolytic cleavage between Ala-302 and Lys-303, was synthesized by polymerase chain reaction (PCR) using a chromosomal DNA from a S. epidermidis isolated from a patient in Chang-Gung Hospital (Keelung, Taiwan) as template. The gehC gene is a Staphylococcus epidermidis strain 9 lipase gene. The gene consisted of a single open reading frame of 2064 nucleotides, which encoded a protein of 688 amino acids with a predicted molecular mass of 77 kDa. The Lys-303 gene (SEQ ID NO:13) encoded an active lipase (SEQ ID NO:14), which was about 43 kDa in molecular weight. The Lys-303-encoded lipase is also known as the “43 kDa” or “wild-type” lipase. Two primers: an N-terminal primer of SEQ ID NO:1 (5′-[…]-3′) and a C-terminal primer of SEQ ID NO:2 (5′-[…]-3′) were used in this synthetic process.
as §1, §3

[6] = system: CCCC(=O)Oc1ccc([N+](=O)[O-])cc1; assay: Kinetic analysis of hydrolysis of p-nitrophenyl butyrate (p-nitrophenol formation), mutant H648K; type: biochemical, Staphylococcus epidermidis; conditions: other: H648K, substrate p-nitrophenyl butyrate, 50 mM phosphate buffer (pH 6.0), 37° C., means ± standard error, three experiments
Method: as §1

[7] = system: CCCC(=O)Oc1ccc([N+](=O)[O-])cc1; assay: Kinetic analysis of hydrolysis of p-nitrophenyl butyrate (p-nitrophenol formation), mutant M419A; type: biochemical, Staphylococcus epidermidis; conditions: other: M419A, substrate p-nitrophenyl butyrate, 50 mM phosphate buffer (pH 6.0), 37° C., means ± standard error, three experiments
Excerpt: as §2, §1, §3

[8] = system: CCCC(=O)Oc1ccc([N+](=O)[O-])cc1; assay: Kinetic analysis of hydrolysis of p-nitrophenyl butyrate (p-nitrophenol formation), mutant V649I; type: biochemical, Staphylococcus epidermidis; conditions: other: V649I, substrate p-nitrophenyl butyrate, 50 mM phosphate buffer (pH 6.0), 37° C., means ± standard error, three experiments
Excerpt: as §2, §1

[9] = system: CCCC(=O)Oc1ccc([N+](=O)[O-])cc1; assay: Kinetic analysis of hydrolysis of p-nitrophenyl butyrate (p-nitrophenol formation), wild-type lipase; type: biochemical, Staphylococcus epidermidis; conditions: other: wild-type, substrate p-nitrophenyl butyrate, 50 mM phosphate buffer (pH 6.0), 37° C., means ± standard error, three experiments
Excerpt: as §4, §1, §3

Question: What does the source list for CCCC(=O)Oc1ccc([N+](=O)[O-])cc1 [p-nitrophenyl butyrate]?
Answer: Km [1]: 2070 µM; kcat [1]: 0.53 s⁻¹; kcat/Km [1]: 257 M⁻¹ s⁻¹; kcat compared with the wild-type enzyme (decreased to) [2]: 10.4%; change in the Km compared with the wild-type enzyme ([2]; in words): little change; increase in catalytic efficiency (kcat/Km) in comparison with the wild-type enzyme [3]: 2.0 fold; increase in kcat in comparison with the wild-type enzyme [4]: 13.4 fold; increase in the kcat/Km in comparison with the wild-type enzyme [4]: 4.0 fold; kcat [5]: 25.1 s⁻¹

Question: With “Staphylococcus epidermidis strain 9 lipase variant H648K (His-648 to Lys), SEQ ID NO:16 (Staphylococcus epidermidis; H648K)” as the compound, how does the Km [6] read?
Answer: 950 ± 350 µM

Question: What about the kcat [6] of the same compound?
Answer: 2.6 ± 0.9 s⁻¹

Question: And the kcat/Km [6]?
Answer: 2700 M⁻¹ s⁻¹

Question: What does the source list for “Staphylococcus epidermidis strain 9 lipase variant M419A (Met-419 to Ala), SEQ ID NO:15 (Staphylococcus epidermidis; M419A)”?
Answer: Km [7]: 3970 ± 120 µM; kcat [7]: 218 ± 14 s⁻¹; kcat/Km [7]: 54800 M⁻¹ s⁻¹

Question: What does the source list for “Staphylococcus epidermidis strain 9 lipase variant V649I (Val-649 to Ile), SEQ ID NO:17 (Staphylococcus epidermidis; V649I)”?
Answer: Km [8]: 3020 ± 210 µM; kcat [8]: 336 ± 15.7 s⁻¹; kcat/Km [8]: 111000 M⁻¹ s⁻¹

Question: With “Staphylococcus epidermidis strain 9 lipase, wild-type (recombinant 43 kDa "Lys-303" lipase, C-terminal His-tag), SEQ ID NO:14 (Staphylococcus epidermidis)” as the compound, how does the Km [9] read?
Answer: 900 ± 80 µM

Question: And the kcat [9]?
Answer: 25.1 ± 0.6 s⁻¹

Question: And the kcat/Km [9]?
Answer: 27900 M⁻¹ s⁻¹
